Experimental findings from the nanobody polyreactivity screen of Harvey et al. (2022) are described below.

The data set can be described thus: yeast display, Sf9 membrane polyspecificity reagent, FACS + sequencing; frameworks hold sequencing errors. The method, boiled down: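 Synthetic nanobody libraries on Saccharomyces cerevisiae BJ5465 were galactose-induced for 36–48 hours, stained 1 hour at 4 °C with 10% biotinylated, detergent-solubilized Sf9 membrane reagent and enriched on streptavidin microbeads. FACS then separated cells into low and high (top ~1%) gates by anti-HA (expression) and streptavidin (reagent binding) fluorescence. Genes were colony-PCR amplified, MiSeq 2 × 250 sequenced and CDR-length filtered. A clone's polyreactivity label is that of its gate of origin.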
Take “QVQLVESGGGLVQAGGSLRLSSAASGRIFDANDMGWYRQAPGQERELVAVISSRGGSTYYADSVKGRFTISRDNAKNTVDLQMNSLKPEEAAVYYCAKGLSVAGYDYWGQGTQVTVSS”: the “polyreactivity (PSR sort gate)” value is reported as “low polyreactivity”.
On to “QVQLVESGRGLVQAGGSLRLSCAASGSIFWENAMGWYRQAPGKERELVADITIGGSTNYADSVKGRFTISRDNAKNTVYLQMNILKPEDTAVYYCAAYYYWPKYWYWGYDDWGQGTQVTVSS”, for which the “polyreactivity (PSR sort gate)” value is recorded as “low polyreactivity”.
In the case of “QVQLVESGGGLDQAGGSLRLSCAASGIIFWYYAMGWYRQAPGKEMELVAAINWNGDSTHYADSVKGRFTISRDNAKNTVYLQMNILKPEDTAVYYCAARTYTLRGVYFSGYNYWGQATQVTVSS”, the “polyreactivity (PSR sort gate)” value was “low polyreactivity”.
Turning to “QVQRVESGGGLVQAGGSLRLSCAASGRIFYPNAMGWYRQAPGTEREWVAGITRGGSTNYADSVKGRFTISRDNAKNTVYLQMNSLKPDDSAVDYCAKAIPAKIYSEAGSDYWGQGTQVTVSS”, the “polyreactivity (PSR sort gate)” value was “low polyreactivity”.
As for “QGQLVESGGGLVQAGGSLRLSCAASGYIFNPNAMGWYRQGPGKERDLFAGITWRGDRTYYADSVKGRFTISRDNAKNTVYLQMNCLKPEDTAVYYCNGAGADRWSYSSNIRRYYYWGHGTQVTVSS”, the “polyreactivity (PSR sort gate)” value is “high polyreactivity”.
In the case of “QVQLVESGGGLVQAGGSLRLSCAASGFTFRLYDMGCYIQAPGKERELVAAISIRGGRTYYADSVKGRFTISRDNAKNTVYLQMNSLKPEDTAVYYCAAYSQYLKRDYWGQGTQVTVSS”, the “polyreactivity (PSR sort gate)” value is “high polyreactivity”.
Consider “QVQLVESGGGLVQAGGSLRLSCAASGLIFPGYDMGWYRAAPGKVRELVAAISDSGANTYYADSVKVRFTISRDNAKNTVYLQMNSLKPEDTAVYYCAADSSWGYGTYFGRFDYWGQGTQVTVSS”, for which the “polyreactivity (PSR sort gate)” value was “low polyreactivity”.
For the sequence “QVQLVESGGGLVQAGGSLRLSCAASGSTLTSNAIGWYRQAPGKERELVAAIRSGGSTNYADSVKGRFTISRDNAKNTVYLQMYSLNPEDTAVYYCNAEEKVTYSASYYWVYDAMDHWGQGTQVTVSS”, the “polyreactivity (PSR sort gate)” value was “low polyreactivity”.
To “QDQLVESGGGLVQAGGSLRLSCAASGFIIQGNAMGGYRQAPRKERELVAAISSSVSTYYADSVKGRFTISRDNAKNTVYLQMNSLKPEDTAVYYCNSGFPLSLWLGDYWGQGTQVTVSS” belongs “low polyreactivity”.
Take “QVQLVESGGGLVQAGGSLRLSCAASGFTFDWNSMGCYRQAPGQERELVATIRWSVGSTYYADSVKGRFTISRDNAKNTVYLQMNSLKPEDTAVYYCAADSQWSYPDYPGEYAYDYWGQGTQVTVSS”: the “polyreactivity (PSR sort gate)” value was “low polyreactivity”.
The value for “QVQLVESGGGLVQAGGSLRLSCAASGSTFDRYAMGWYRQAPGKERELVAAISWSGGSTYYADSVKGRFTISRDNAKNTVYLQMNSLKREDTAVYYCARRYARITPVYPPLNYWGQGTQVTVSS” was “high polyreactivity”; that for “QVQLVESGGGLVQAGGRLRLSCAASGSIMDTNAMGWYRQAPGKERELVARIDIDGSTNYADSVKGRFTISRDNAKKTVYLQMNSLKPEDTAVYYCNKDHSSYGASGYDYWGQGTQVTVSS” was “low polyreactivity”.
For “QVQLVESGGGLVQAGGSLRLSCASSGIIFYKYAMGWYRQAPGKERELVAVISRGGGSTYYADSVKGRFTISRDNAKNTVYLQMNSLKPEDTAVYYCAADPRVTRSYTYDYWVQGTQVTVSS”, the “polyreactivity (PSR sort gate)” value is “high polyreactivity”.
As to “QVQLVESGGGLVQAGGSLRLSCAASGSTFHLYAMGWYRQAPGKERELVAAITRGGGSTYYADSVKGRFTISRDYAKNTVYLQMNSLKPEDTAVYYCNARGPSSYRYEYWGQGTQVTVSS”, the “polyreactivity (PSR sort gate)” value is given as “high polyreactivity”.
Turning to “QVQHVESGGGLVQAGGSLRLSCAASGRTFYLNAMGWSRQAPGKARELVATISYTGDTTYYADSVKGRFTISRDNAKNTVYLQMNSLKPEDTAVYYCAKDYSLTQQRHAAYIVGSVDYWGQGTQVTVSS”, the “polyreactivity (PSR sort gate)” value is “high polyreactivity”.
On to “QVQLVESGGGLVQAGGSLRLSCAASGRIIANYAMGWYRQAPGKEREVVAGISSGGSTNYADSVKGRFTISRDNAKNPVYLQMNSLKPEDTAVYYCAKDPAYRVSKYDYWGQGTQVTVSS”, for which the “polyreactivity (PSR sort gate)” value is on record as “low polyreactivity”.
